Positions count from the first letter of the chain named. Like-named read-outs stand apart in the source and are kept apart here. Ends that are not written are not given here.
T1: lysine-acetylated histone H4 peptide SGRGKGG-AcK-GLGK
T1 chain: SGRGKGGKGLGK

T2: lysine-acetylated histone H4 peptide SGRGKGG-AcK-GLGK
T2 construct: also called H4 AcK-Peptide; AcK peptide
T2 peptide: SGRGKGGK(Ac)GLGK

T3: lysine-acetylated histone H4 peptide SGRGKGG-AcK-GLGK
T3 construct: also called AcK peptide; AcK-containing H4 peptide
T3 peptide: SGRGKGGK(Ac)GLGK

B1: P/CAF bromodomain Tyr802Ala mutant, Q92831 719-832 (protein)
chain: SKEPRDPDQLYSTLKSILQQVKSHQSAWPFMEPVKRTEAPGYYEVIRFPMDLKTMSERLKNRYYVSKKLFMADLQRVFTNCKEANAAESEYYKCANILEKFFFSKIKEAGLIDK
modifications: here or on the partner: acetyl-lysine (AcK) at Lys8
B2: P/CAF bromodomain Tyr760Ala mutant, Q92831 719-832 (protein)
chain: B1 chain with Y42A, A84Y
modifications: here or on the partner: acetyl-lysine (AcK) at Lys8
B3: P/CAF bromodomain (residues 719-832 of human p300/CBP-associated factor), wild-type (other)
chain: B1 chain with A84Y
notes: Expressed in E. coli with an N-terminal poly-His tag that thrombin removed; residues left over from the vector are not described; 15N-labelled for the NMR titration; also called hsp/CAF bromodomain; bromodomain of P/CAF
B4: P/CAF bromodomain Val752Ala mutant, Q92831 719-832 (protein)
chain: B1 chain with V34A, A84Y
modifications: here or on the partner: acetyl-lysine (AcK) at Lys8
B5: P/CAF bromodomain Tyr809Ala mutant (other)
chain: B1 chain with A84Y, Y91A
notes: Made by site-directed mutagenesis of the wild-type bromodomain construct
B6: P/CAF bromodomain Tyr809Ala mutant (other)
chain: B1 chain with A84Y, Y91A
notes: Point mutant of the P/CAF bromodomain made by site-directed mutagenesis

Legend:
[1] = molecular target: T1, lysine-acetylated histone H4 peptide …; test: NMR titration, 15N-HSQC chemical shift changes against ligand concentration; settings: remark: other sources report otherwise
[2] = molecular target: T2, lysine-acetylated histone H4 peptide …; test: as above
[3] = molecular target: T3, lysine-acetylated histone H4 peptide …; test: NMR titration, 15N-HSQC
[4] = molecular target: T2, lysine-acetylated histone H4 peptide …; test: NMR titration, 15N-HSQC chemical shift changes

| Binder | Kd [1] | also measured |
| --- | --- | --- |
| B1 | > 10 mM | – |
| B2 | > 10 mM | – |
| B3 | – | Kd [2]: 0.346 mM |
| B4 | > 10 mM | – |
| B5 | – | binding result [3]: no binding |
| B6 | – | binding result [4]: no binding |

Reference: patent US7919276
